For one substance, cell surface expression of Cav3.1 (surface biotinylation, tsA-201 cells) in the presence of the cell permeant Tat-Cav3.1-CT disruptor peptide against a scrambled Tat peptide results are on record in publication PMC5930937.

The test has as its target Cav3.1-GFP wild type (human) (UniProt O43497).
Chain of UniProt O43497 (O43497 whole entry): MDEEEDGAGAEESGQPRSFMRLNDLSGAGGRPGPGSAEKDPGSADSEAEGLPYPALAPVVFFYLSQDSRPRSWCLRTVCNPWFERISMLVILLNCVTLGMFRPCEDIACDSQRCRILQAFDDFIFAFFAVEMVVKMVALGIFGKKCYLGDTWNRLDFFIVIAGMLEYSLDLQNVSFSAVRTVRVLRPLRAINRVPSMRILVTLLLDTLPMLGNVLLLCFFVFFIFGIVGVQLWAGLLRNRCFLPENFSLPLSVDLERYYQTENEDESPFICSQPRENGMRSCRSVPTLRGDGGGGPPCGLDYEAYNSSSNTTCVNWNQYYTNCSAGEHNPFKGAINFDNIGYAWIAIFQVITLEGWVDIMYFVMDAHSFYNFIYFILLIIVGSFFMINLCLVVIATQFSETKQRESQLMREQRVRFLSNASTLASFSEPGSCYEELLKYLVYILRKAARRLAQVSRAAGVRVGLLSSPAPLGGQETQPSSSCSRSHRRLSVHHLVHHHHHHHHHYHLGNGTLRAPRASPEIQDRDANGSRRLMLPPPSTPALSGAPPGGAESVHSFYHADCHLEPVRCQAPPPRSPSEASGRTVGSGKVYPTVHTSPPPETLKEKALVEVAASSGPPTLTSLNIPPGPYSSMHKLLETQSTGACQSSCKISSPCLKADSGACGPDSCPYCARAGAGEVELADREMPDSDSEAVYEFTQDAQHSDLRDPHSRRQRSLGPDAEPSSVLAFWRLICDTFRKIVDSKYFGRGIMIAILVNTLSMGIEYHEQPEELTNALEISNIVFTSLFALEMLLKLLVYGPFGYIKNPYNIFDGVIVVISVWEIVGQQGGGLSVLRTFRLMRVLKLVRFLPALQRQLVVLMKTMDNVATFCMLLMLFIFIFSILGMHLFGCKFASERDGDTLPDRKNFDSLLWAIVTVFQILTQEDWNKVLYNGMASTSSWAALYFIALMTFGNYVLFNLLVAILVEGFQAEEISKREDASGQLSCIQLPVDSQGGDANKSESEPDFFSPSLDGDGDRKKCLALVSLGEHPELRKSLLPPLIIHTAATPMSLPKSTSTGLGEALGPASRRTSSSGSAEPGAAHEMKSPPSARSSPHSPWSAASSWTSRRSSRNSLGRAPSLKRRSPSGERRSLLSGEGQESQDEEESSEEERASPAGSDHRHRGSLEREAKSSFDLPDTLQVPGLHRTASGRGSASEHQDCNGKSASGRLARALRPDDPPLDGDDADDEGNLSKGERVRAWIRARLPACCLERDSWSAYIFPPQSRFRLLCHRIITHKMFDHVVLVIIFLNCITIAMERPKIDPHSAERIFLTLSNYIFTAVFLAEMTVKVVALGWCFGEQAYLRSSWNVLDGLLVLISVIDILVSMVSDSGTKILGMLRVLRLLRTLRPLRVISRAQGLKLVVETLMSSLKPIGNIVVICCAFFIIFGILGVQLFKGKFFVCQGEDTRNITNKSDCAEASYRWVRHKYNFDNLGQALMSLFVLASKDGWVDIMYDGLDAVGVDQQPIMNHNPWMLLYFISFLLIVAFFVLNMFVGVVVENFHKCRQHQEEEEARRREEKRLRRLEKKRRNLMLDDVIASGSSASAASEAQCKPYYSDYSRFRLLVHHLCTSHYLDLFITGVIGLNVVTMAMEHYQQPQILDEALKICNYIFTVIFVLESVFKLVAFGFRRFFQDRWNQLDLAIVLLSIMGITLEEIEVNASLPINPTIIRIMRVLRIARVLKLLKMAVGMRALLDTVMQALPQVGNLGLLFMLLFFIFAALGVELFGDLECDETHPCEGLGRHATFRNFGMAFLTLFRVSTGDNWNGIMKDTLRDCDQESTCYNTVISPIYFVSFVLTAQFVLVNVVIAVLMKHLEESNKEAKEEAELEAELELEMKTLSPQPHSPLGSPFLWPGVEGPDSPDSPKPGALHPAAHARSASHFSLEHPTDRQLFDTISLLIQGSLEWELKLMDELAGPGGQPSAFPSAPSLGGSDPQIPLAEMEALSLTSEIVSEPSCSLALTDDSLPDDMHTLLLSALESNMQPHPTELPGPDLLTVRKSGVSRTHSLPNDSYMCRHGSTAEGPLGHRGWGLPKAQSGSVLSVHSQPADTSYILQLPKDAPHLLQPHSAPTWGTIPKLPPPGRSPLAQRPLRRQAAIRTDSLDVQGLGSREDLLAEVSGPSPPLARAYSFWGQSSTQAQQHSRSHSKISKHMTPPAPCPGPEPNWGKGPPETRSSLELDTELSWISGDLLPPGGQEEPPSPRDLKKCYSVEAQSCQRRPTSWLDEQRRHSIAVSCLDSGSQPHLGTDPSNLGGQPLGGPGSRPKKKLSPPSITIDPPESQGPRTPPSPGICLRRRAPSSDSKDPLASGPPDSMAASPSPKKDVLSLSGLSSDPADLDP

Turning to “spectrin αII (SPTAN1), tsA-201 cells, Q13813 1-2472”, the cell surface expression of Cav3.1 (surface biotinylation, tsA-201 cells) in the presence of the cell permeant Tat-Cav3.1-CT disruptor peptide against a scrambled Tat peptide came to 40%.
